# Literature values in publication PMC3089900.
# Target: His276 (UniProt position 276, SEELDHALNDM)
# Assay: NMR
# Conditions: in the presence of troponin T fragment TnT1
substance,measurement,value
alpha-tropomyosin (striated muscle alpha-Tm) (Oryctolagus cuniculus (inferred; the article's alpha-Tm sequence discussion and preparations are rabbit)),pKa,7.27−7.98
